Changes are numbered by the printed parent chain. Numbers in names are those of the source.

What is called Kd is a measure of binding affinity in units of concentration. Low readings indicate a tighter complex, high ones a looser complex. For orientation: koff means the first-order rate constant of dissociation. The low end stands for slow dissociation, the high end for fast dissociation.

In assay [1] the target is T1, human α-CGRP 1-37 (WT) (human, C-terminal amide; N-terminal biotin when captured on the SA chip; 125I-labelled in the radioligand assay).
T1 construct: also called α-human
T1 peptide: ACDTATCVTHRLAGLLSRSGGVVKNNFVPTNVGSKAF
Briefly: Biacore, 37°C, Fab over CGRP on SA chip. Here is the method:
(§1) Biacore assay for affinity determination. […] All Biacore assays were conducted in HBS-EP running buffer (10 mM HEPES pH 7.4, 150 mM NaCl, 3 mM EDTA, 0.005% v/v polysorbate P20). CGRP surfaces were prepared by diluting the N-biotinylated CGRP to a concentration of less than 0.001 mg/mL into HBS-EP buffer and injecting it across the SA sensor chip using variable contact times. […] Samples were typically injected for 1 minute at 100 μL/min and dissociation times of at least 10 minutes were allowed. […] An entire titration series (typically generated in duplicate) was fit globally to a 1:1 Langmuir binding model using the BIAevaluation program. This returned a unique pair of association and dissociation kinetic rate constants (respectively, kₒₙ and koff) for each binding interaction, whose ratio gave the equilibrium dissociation constant (KD=koff/kₒₙ). […]
(In general: Surface plasmon resonance follows binding to a sensor surface in real time, without labels.)

The target in assay [2] is T2, rat α-CGRP (1-37) (rat, C-terminal amide; N-terminal biotin when captured on the SA chip).
T2 construct: also called rat α (1-37); α-rat
T2 peptide: T1 peptide with A1S, D3N, N25D, K35E
Put plainly: Biacore, 37°C, Fab over CGRP on SA chip. Here is the method:
as §1

B1: G1 variant M44 Fab (Fab, V domains shown)
VH: EVQLVESGGGLVQPGGSLRLSCAASGFTFSNYWISWVRQAPGKGLEWVAEIRSKSDNEATHYAEAVKGRFTISRDNAKNSLYLQMNSLRAEDTAVYYCTVYFDYGLAIQNYWGQGTLVTVSS
VL: EIVLTQSPATLSLSPGERATLSCKASKNVTTYVSWYQQKPGQAPRLLIYAASNRYTGIPARFSGSGSGTDFTLTISSLEPEDFAVYYCSQSYNYPYTFGQGTKLEIK
notes: Fab; constant domains as m1
In assay [1], B1 showed a Kd of 2.05 nM and an off-rate constant (koff) of 0.00021 s⁻¹. In assay [2], this molecule showed a Kd of 443 nM and an off-rate (koff) of 0.00613 s⁻¹.

B2: G1 variant M65 Fab (Fab, V domains shown)
VH: B1 VH with N57C, E58S
VL: B1 VL with T30G, T56I
notes: Fab; constant domains as m1
As to B2, in assay [1], the Kd was 5.02 nM and the koff was found to be 0.000803 s⁻¹. In assay [2], this molecule registered a Kd of 226 nM and a koff of 0.00407 s⁻¹.

B3: G1 variant M47 Fab (Fab, V domains shown)
VH: B1 VH with E58G
VL: B1 VL
notes: Fab; constant domains as m1
In assay [1], B3 showed a dissociation constant Kd of 2.08 nM and a koff of 0.000332 s⁻¹. Besides, in assay [2], the dissociation constant Kd was 457 nM and the koff came to 0.00823 s⁻¹.

B4: G1 variant M55 Fab (Fab, V domains shown)
VH: B1 VH with E64D
VL: B1 VL with T30A, A50G, T56S
notes: Fab; constant domains as m1
As to B4, the Kd in assay [1] worked out at 2.99 nM; in assay [2], 325 nM. The figures for the koff in assay [1] and in assay [2] were 0.000478 s⁻¹ and 0.00585 s⁻¹, respectively.

B5: G1 variant M66 Fab (Fab, V domains shown)
VH: B1 VH with N57E, E58S
VL: B1 VL with T30G, A50G, T56I
notes: Fab; constant domains as m1; printed L561 read as L56I
Regarding B5, in assay [1], the Kd amounted to 3.25 nM and the off-rate constant (koff) was 0.00052 s⁻¹. In assay [2], this molecule came in with a Kd of 284 nM and a koff of 0.00511 s⁻¹.

B6: G1 variant M69 Fab (Fab, V domains shown)
VH: B1 VH
VL: B1 VL with T30G, A50G, T56I
notes: as for B5
In assay [1], B6 gave a Kd of 4.58 nM and a koff of 0.000733 s⁻¹. In assay [2], this molecule had a Kd of 101 nM and a koff of 0.00181 s⁻¹.

B7: G1 variant M57 Fab (Fab, V domains shown)
VH: B1 VH
VL: B1 VL with T30D, A50G, T56S
notes: Fab; constant domains as m1
Take B7: in assay [1], the equilibrium dissociation constant (Kd) was found to be 3.08 nM and the off-rate constant (koff) turned out to be 0.000322 s⁻¹. In assay [2], this molecule had a dissociation constant Kd of 1200 nM and a koff of 0.0104 s⁻¹.

B8: G1 variant M54 Fab (Fab, V domains shown)
VH: B1 VH with E58P
VL: B1 VL with T30A, T56L
notes: Fab; constant domains as m1
In assay [1], B8 registered a Kd of 11.2 nM and a dissociation rate constant (koff) of 0.00179 s⁻¹. In assay [2], this molecule returned an equilibrium dissociation constant (Kd) of 120 nM and an off-rate (koff) of 0.00216 s⁻¹.

B9: G1 variant M67 Fab (Fab, V domains shown)
VH: B1 VH with N57F, E58S
VL: B1 VL with T30G, A50G, T56I
notes: as for B5
In assay [1], B9 registered an equilibrium dissociation constant (Kd) of 5.13 nM and a koff of 0.00082 s⁻¹. In assay [2], this molecule showed a Kd of 95 nM and a koff of 0.00171 s⁻¹.

B10: G1 variant M61 Fab (Fab, V domains shown)
VH: B1 VH with K54Q, E58S, H61F
VL: B1 VL with T30G, A50G, A51H, T56L
notes: Fab; constant domains as m1
For the molecule B10, in assay [1], the equilibrium dissociation constant (Kd) was 2.87 nM and the koff was determined as 0.000459 s⁻¹. In assay [2], this molecule came in with an equilibrium dissociation constant (Kd) of 289 nM and a koff of 0.00521 s⁻¹.

B11: G1 variant M59 Fab (Fab, V domains shown)
VH: B1 VH with E58N, H61F
VL: B1 VL with T30D, A50G, T56S
notes: Fab; constant domains as m1
For B11, the equilibrium dissociation constant (Kd) amounted to 3.28 nM in assay [1] and 683 nM in assay [2]. For the same molecule, the koff in assay [1] is 0.000524 s⁻¹; in assay [2], 0.0123 s⁻¹.

B12: G1 variant M64 Fab (Fab, V domains shown)
VH: B1 VH with E58V
VL: B1 VL with T30G, T56L
notes: Fab; constant domains as m1
As to B12, in assay [1], the Kd is 8.25 nM and the koff was found to be 0.00132 s⁻¹. In assay [2], this molecule registered a dissociation constant Kd of 1300 nM and a koff of 0.0234 s⁻¹.

B13: G1 variant M58 Fab (Fab, V domains shown)
VH: B1 VH with E58I, H61F
VL: B1 VL with T30D, A50G, T56S
notes: Fab; constant domains as m1
In assay [1], B13 returned an equilibrium dissociation constant (Kd) of 12.2 nM and a koff of 0.00195 s⁻¹. Besides, the binding result in assay [2] is “no binding”.

B14: G1 variant M45 Fab (Fab, V domains shown)
VH: B1 VH with E64D
VL: B1 VL
notes: Fab; constant domains as m1
B14: in assay [1], the Kd was found to be 1.85 nM and the koff stood at 0.000211 s⁻¹. For the same molecule, in assay [2], the equilibrium dissociation constant (Kd) was 259 nM and the koff is 0.00558 s⁻¹.

B15: G1 variant M51 Fab (Fab, V domains shown)
VH: B1 VH with N57G, E58S
VL: B1 VL with A50G, T56I
notes: as for B5
Regarding B15, the Kd is 0.82 nM in assay [1] and 65.6 nM in assay [2]. Moreover, the off-rate (koff) in assay [1] came out at 0.000131 s⁻¹; in assay [2] it was 0.00118 s⁻¹.

B16: G1 variant M46 Fab (Fab, V domains shown)
VH: B1 VH with H61F
VL: B1 VL
notes: Fab; constant domains as m1
As for B16, in assay [1], the Kd worked out at 3.37 nM and the koff stood at 0.000539 s⁻¹. In assay [2], this molecule returned a Kd of 163 nM and an off-rate (koff) of 0.00294 s⁻¹.

B17: G1 variant M60 Fab (Fab, V domains shown)
VH: B1 VH with E58R, H61F
VL: B1 VL with T30D, A50G, T56S
notes: Fab; constant domains as m1
On to B17, for which the dissociation constant (Kd) was determined as 5.69 nM in assay [1] and 1510 nM in assay [2]. The koff was found to be 0.000911 s⁻¹ in assay [1] and 0.0272 s⁻¹ in assay [2].

B18: G1 variant M56 Fab (Fab, V domains shown)
VH: B1 VH with E58S, H61F
VL: B1 VL with T30D, A50G, T56S
notes: Fab; constant domains as m1
In assay [1], B18 displayed a dissociation constant (Kd) of 2.99 nM and a koff of 0.000479 s⁻¹. In assay [2], this molecule came in with a Kd of 519 nM and a koff of 0.00935 s⁻¹.

B19: G1 variant M48 Fab (Fab, V domains shown)
VH: B1 VH with E58L
VL: B1 VL
notes: Fab; constant domains as m1
As to B19, in assay [1], the dissociation constant Kd was determined as 5.26 nM and the koff is 0.000842 s⁻¹. In addition, in assay [2], the equilibrium dissociation constant (Kd) was 1910 nM and the koff was found to be 0.0343 s⁻¹.

B20: G1 variant M62 Fab (Fab, V domains shown)
VH: B1 VH
VL: B1 VL with T30G, A50G, A51H
notes: Fab; constant domains as m1
In assay [1], B20 registered a dissociation constant (Kd) of 5.86 nM and a koff of 0.000557 s⁻¹. In assay [2], binding was put at a Kd of 242 nM and the koff was 0.00575 s⁻¹.

B21: G1 variant M68 Fab (Fab, V domains shown)
VH: B1 VH with E58D, E64D
VL: B1 VL with T30G, A50G, T56I
notes: as for B5
On to B21, for which the results for the dissociation constant Kd in assay [1] and in assay [2] were 2.68 nM and 376 nM, respectively. Besides, the figures for the off-rate (koff) in assay [1] and in assay [2] were 0.000428 s⁻¹ and 0.00676 s⁻¹, respectively.

B22: G1 variant M70 Fab (Fab, V domains shown)
VH: B1 VH with N57S, E58S
VL: B1 VL with T30G, A50G, T56I
notes: as for B5
Regarding B22, in assay [1], the Kd was determined as 3.49 nM and the off-rate constant (koff) worked out at 0.000559 s⁻¹. Moreover, in assay [2], the Kd came out at 337 nM and the koff was found to be 0.00607 s⁻¹.

B23: G1 variant M63 Fab (Fab, V domains shown)
VH: B1 VH with E58T
VL: B1 VL with T30G, T56L
notes: Fab; constant domains as m1
Turning to B23, the Kd came out at 9.38 nM in assay [1] and 147 nM in assay [2]. For the same molecule, the koff in assay [1] stood at 0.0015 s⁻¹; in assay [2] it was 0.00265 s⁻¹.

B24: G1 variant M53 Fab (Fab, V domains shown)
VH: B1 VH with E58G
VL: B1 VL with A50G, T56I
notes: as for B5
In assay [1], B24 gave an equilibrium dissociation constant (Kd) of 2.34 nM and an off-rate constant (koff) of 0.000374 s⁻¹. In assay [2], this molecule gave a dissociation constant (Kd) of 106 nM and a koff of 0.00191 s⁻¹.

B25: G1 variant M49 Fab (Fab, V domains shown)
VH: B1 VH with E58Y, H61F
VL: B1 VL
notes: Fab; constant domains as m1
As for B25, in assay [1], binding was characterised by a dissociation constant (Kd) of 3.72 nM and the dissociation rate constant (koff) was found to be 0.000595 s⁻¹. In assay [2], this molecule displayed a Kd of 822 nM and an off-rate constant (koff) of 0.0148 s⁻¹.

B26: G1 variant M52 Fab (Fab, V domains shown)
VH: B1 VH with E58A
VL: B1 VL with A50G, T56I
notes: as for B5
Regarding B26, the Kd in assay [1] amounted to 1.76 nM; in assay [2], 127 nM. The results for the koff in assay [1] and in assay [2] were 0.000281 s⁻¹ and 0.00229 s⁻¹, respectively.

B27: G1 variant M50 Fab (Fab, V domains shown)
VH: B1 VH with N57R, E58S
VL: B1 VL
notes: Fab; constant domains as m1
In the case of B27, in assay [1], the dissociation constant Kd was found to be 2.54 nM and the koff came to 0.000406 s⁻¹. Also, in assay [2], the affinity, expressed as Kd, was 294 nM and the koff stood at 0.0053 s⁻¹.

The values above are taken from patent US20190071490A1 (BETH ISRAEL DEACONESS MEDICAL CENTER, published 2019).
